From PMC3039672

Molecular target: partial heads (10am13am phage T4 heads that ejected most of their packaged DNA, keeping a ~8-kb piece) (bacteriophage T4) (UniProt P13334)
Chain of UniProt P13334 (P13334 whole entry, looked up): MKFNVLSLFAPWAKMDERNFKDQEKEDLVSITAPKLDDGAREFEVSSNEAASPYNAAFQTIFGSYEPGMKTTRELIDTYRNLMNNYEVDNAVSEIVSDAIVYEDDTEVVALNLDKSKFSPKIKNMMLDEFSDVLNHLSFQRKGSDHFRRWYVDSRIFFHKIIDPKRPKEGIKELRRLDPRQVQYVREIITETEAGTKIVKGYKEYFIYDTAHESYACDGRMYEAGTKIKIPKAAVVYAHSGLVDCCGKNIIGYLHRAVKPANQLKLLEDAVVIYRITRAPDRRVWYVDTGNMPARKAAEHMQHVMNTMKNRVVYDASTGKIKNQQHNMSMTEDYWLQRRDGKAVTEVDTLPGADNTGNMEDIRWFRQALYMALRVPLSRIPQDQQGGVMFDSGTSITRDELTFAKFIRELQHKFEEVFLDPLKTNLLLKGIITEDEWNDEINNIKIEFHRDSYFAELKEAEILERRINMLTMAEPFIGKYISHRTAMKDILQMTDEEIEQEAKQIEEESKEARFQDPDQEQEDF

single molecule optical tweezers: packaging rate of 10-kb DNA against 5 pN by head-gp17 complexes: 1100 bp/s
Substance: full-length gp17 (large terminase protein, packaging motor) (from UniProt P17312 1-610) (enzyme)
